Reference: paper PMC8402611, “Generation and Characterization of a Spike Glycoprotein Domain A-Specific Neutralizing Single-Chain Variable Fragment against Porcine Epidemic Diarrhea Virus” (Vaccines, 2021)

Legend:
[1] = biological target: T1, S protein of PEDV-CV777 (G1 PEDV) (Porcine epidemic diarrhea virus, CV777 …, UniProt H2DFZ6); assay: immunostaining of cells or tissue; ICC (HRP/DAB) and IFA (FITC) on PEDV-infected Vero cells fixed with 80% acetone; scFv 5 ug/mL in PBS for 1 h, detected by anti-V5 antibody; PBS blank as background control; settings: one partner purified
T1 construct: spike (S) protein of porcine epidemic diarrhea virus strain CV777; stood on infected cells and on purified virions; The antigen in the assays was the infected cell or the whole virion; also called G1 PEDV S protein; historic vaccine strain; source: PEDV-CV777 in infected Vero cells (acetone-fixed); purified PEDV-CV777 virions
T1 sequence (Q91AV1 26-1383): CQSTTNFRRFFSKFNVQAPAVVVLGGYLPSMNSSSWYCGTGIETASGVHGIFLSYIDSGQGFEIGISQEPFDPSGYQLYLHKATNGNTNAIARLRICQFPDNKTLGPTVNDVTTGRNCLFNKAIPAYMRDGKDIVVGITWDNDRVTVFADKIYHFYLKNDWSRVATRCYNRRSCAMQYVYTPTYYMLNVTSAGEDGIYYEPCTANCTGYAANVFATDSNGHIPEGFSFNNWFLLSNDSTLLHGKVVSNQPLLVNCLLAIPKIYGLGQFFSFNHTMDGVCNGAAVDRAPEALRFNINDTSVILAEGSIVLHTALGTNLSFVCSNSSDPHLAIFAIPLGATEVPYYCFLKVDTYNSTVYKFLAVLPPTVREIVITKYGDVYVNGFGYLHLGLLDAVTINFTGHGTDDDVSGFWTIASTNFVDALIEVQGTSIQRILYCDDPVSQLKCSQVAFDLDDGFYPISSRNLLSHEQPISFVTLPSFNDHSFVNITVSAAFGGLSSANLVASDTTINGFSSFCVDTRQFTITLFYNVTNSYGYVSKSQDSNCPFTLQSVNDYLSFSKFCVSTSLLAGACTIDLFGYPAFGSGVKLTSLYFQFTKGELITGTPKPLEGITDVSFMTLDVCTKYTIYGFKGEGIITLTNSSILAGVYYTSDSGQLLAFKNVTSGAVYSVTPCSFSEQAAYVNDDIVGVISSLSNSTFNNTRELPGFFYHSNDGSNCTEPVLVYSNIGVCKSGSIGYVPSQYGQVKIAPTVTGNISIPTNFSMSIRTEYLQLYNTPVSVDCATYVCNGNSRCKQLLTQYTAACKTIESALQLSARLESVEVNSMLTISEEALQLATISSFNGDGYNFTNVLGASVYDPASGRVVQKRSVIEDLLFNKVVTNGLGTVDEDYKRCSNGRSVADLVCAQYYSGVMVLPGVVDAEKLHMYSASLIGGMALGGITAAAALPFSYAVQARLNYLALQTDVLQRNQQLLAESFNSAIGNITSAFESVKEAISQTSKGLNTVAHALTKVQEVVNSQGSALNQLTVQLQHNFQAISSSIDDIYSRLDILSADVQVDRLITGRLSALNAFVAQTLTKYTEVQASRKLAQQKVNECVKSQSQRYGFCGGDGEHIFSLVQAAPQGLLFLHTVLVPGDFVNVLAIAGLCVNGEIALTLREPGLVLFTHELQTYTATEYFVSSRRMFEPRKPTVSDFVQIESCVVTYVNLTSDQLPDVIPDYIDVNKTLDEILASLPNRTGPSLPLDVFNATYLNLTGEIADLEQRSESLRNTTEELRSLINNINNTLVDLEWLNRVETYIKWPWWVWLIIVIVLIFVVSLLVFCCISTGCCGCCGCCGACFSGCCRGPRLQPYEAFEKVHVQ

[2] = biological target: T2, ectodomain of the S protein of PEDV (GeneBank no. HC070225-S) (Porcine epidemic diarrhea virus, …, UniProt A0A1Y0DDF5); assay: retention on a 100 kDa MWCO spin column (called immunoprecipitation pull-down assay); 25 pmol S protein with 125 pmol scFv, 37 C for 3 h; 100 kDa MWCO filtration, 10 washes with dPBS; SDS-PAGE with Coomassie; control of scFv alone; settings: both partners purified
T2 construct: spike (S) glycoprotein of porcine epidemic diarrhea virus, ectodomain; also called PEDV S protein; purified trimeric PEDV S glycoprotein; source: Expi293F cells, secreted, purified from the culture medium

B1: recombinant scFv of the PEDV S1^A-specific neutralizing monoclonal antibody E10E-1-10 (scFv, V domains shown)
VH: QVQLQQSGAELARPGTSVKMSCKASGYTFTNYMMHWIKQRPGQGLEWIGYINPSTGYTNYNQKFKDKATLTADKSSSTAYVQLNILTSEDSAVYYCATSTLITGDYWGQGTTLTVSS
VL: NIVLTQSPKSMSMSVGERVTLSCKASENVGTYVSWYQQKPKQSPKLLIYGTFNRYTGVPDRFTGSGSATDFTLTISSVQAEDLADYHCGQSYNYPFTFGSGTKLEIK
notes: (G4S)3 linker; About 30 kDa; The order VL, linker, VH follows the order in which the methods name the regions; also called E10E-1-10 scFv; anti-PEDV S1^A scFv; source: Expi293F cells, transfected, secreted; purified from the supernatant (IMAC on cobalt resin, SEC on Superdex 75 Increase)
[1]
  binding result: binds
[2]
  binding result: binds
